Experimental data reported in doi:10.1101/2021.06.10.447992 (bioRxiv, 2021).

Target: the molecule itself
Assay: AUC

Row | Protein | binding result | stoichiometry N
1 | Y137C COA7 pathogenic variant, recombinant, GST-free (natural protein, human) GPLGSMAGMVDFQDEEQVKSFLENMEVECNYHCYHEKDPDGCYRLVDYLEGIRKNFDEAAKVLKFNCEENQHSDSCYKLGAYYVTGKGGLTQDLKAAARCFLMACEKPGKKSIAACHNVGLLAHDGQVNEDGQPDLGKARDCYTRACDGGYTSSCFNLSAMFLQGAPGFPKDMDLACKYSMKACDLGHIWACANASRMYKLGDGVDKDEAKAEVLKNRAQQLHKEQQKGVQPLTFG | binds | 
2 | Cytochrome c oxidase assembly factor 7 (COA7), recombinant, GST-free (natural protein, human) GPLGSMAGMVDFQDEEQVKSFLENMEVECNYHCYHEKDPDGCYRLVDYLEGIRKNFDEAAKVLKFNCEENQHSDSCYKLGAYYVTGKGGLTQDLKAAARCFLMACEKPGKKSIAACHNVGLLAHDGQVNEDGQPDLGKARDYYTRACDGGYTSSCFNLSAMFLQGAPGFPKDMDLACKYSMKACDLGHIWACANASRMYKLGDGVDKDEAKAEVLKNRAQQLHKEQQKGVQPLTFG |  | 2
